Biological target: T1, green fluorescent protein (Aequorea victoria, engineered EGFP-type …)
T1 construct: green fluorescent protein; pI 5.4; also called GFP; GFP-wt; source: produced by the authors; expression and purification in the Supplementary Methods
Assay: SPR; αGFP nanobody variants and GFP; constants in Table S1; format and conditions not shown
Conditions: both partners purified

- fold reduction of affinity against the wild type: 25 fold
B1: αGFP-S54C (VHH)
VHH: QVQLVESGGALVQPGGSLRLSCAASGFPVNRYSMRWYRQAPGKEREWVAGMSCAGDRSSYEDSVKGRFTISRDDARNTVYLQMNSLKPEDTAVYYCNVNVGFEYWGQGTQVTVSS
notes: as the chain of m1 (nanobody chain of PDB 3OGO) with S54C; In the functional rows it carries linker 3c-rho on C54 (PEABS αGFP-S54-3c-rho); also called cysteine mutant; αGFP-S54C nanobody; source: bacterial expression vector, expressed and purified
